Reference: patent US20180319873A1 (TAIPEI MEDICAL UNIVERSITY, published 2018)

Assays:
[1] = target: native CaENO1 of Candida albicans (alpha-enolase on the cell surface and in cell lysates) (Candida albicans) (UniProt P30575); experiment: flow cytometry on C. albicans SC 5314 cells, 100 ug antibody (negative control)
[2] = target: T1, mENO1 (purified recombinant mouse ENO1) (mouse, UniProt P17182 1-434, limits assumed); experiment: Western blot on purified ENO1 proteins
T1 construct: not shown: His tag, 'expressed and purified in the same way' as His-CaENO1
T1 sequence (P17182 whole entry): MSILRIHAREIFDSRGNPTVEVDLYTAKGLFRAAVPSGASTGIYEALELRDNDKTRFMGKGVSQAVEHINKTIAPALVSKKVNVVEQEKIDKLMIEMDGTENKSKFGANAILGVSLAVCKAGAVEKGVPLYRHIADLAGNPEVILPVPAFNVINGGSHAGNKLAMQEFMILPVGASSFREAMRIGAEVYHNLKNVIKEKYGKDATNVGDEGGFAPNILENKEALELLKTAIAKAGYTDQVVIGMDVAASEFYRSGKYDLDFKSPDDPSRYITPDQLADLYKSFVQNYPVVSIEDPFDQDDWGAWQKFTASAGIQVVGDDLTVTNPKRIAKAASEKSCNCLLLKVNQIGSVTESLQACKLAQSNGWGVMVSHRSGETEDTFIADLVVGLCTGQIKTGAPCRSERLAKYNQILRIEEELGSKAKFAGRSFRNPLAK

[3] = target: T2, hENO1 (purified recombinant human ENO1) (human, UniProt P06733 1-434, limits assumed); experiment: Western blot on purified ENO1 proteins
T2 construct: not shown: His tag, 'expressed and purified in the same way' as His-CaENO1
T2 sequence (P06733 whole entry): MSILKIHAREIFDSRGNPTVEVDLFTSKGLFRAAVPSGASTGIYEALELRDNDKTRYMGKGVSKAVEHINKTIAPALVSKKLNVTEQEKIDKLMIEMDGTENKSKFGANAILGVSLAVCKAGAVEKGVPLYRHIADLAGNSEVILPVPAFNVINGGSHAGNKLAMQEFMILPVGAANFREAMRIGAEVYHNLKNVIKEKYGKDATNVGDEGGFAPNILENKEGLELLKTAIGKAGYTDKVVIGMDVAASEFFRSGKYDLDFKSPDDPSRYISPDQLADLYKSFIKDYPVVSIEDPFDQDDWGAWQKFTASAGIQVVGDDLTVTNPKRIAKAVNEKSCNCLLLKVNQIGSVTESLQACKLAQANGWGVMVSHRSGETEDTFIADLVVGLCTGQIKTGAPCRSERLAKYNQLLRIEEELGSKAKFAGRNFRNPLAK

[4] = target: T3, His-CaENO1 (recombinant Candida albicans alpha-enolase with His tag) (Candida albicans, UniProt P30575 1-440); experiment: ELISA, serial dilution of CaS1 scFv on coated His-CaENO1
T3 construct: Expressed from pQE30-CaENO1 in E. coli BL21, purified on Ni resin, about 49 kDa; also called recombinant CaENO1 protein; purified CaENO1; not shown: His tag from the pQE30 vector
T3 sequence (looked up): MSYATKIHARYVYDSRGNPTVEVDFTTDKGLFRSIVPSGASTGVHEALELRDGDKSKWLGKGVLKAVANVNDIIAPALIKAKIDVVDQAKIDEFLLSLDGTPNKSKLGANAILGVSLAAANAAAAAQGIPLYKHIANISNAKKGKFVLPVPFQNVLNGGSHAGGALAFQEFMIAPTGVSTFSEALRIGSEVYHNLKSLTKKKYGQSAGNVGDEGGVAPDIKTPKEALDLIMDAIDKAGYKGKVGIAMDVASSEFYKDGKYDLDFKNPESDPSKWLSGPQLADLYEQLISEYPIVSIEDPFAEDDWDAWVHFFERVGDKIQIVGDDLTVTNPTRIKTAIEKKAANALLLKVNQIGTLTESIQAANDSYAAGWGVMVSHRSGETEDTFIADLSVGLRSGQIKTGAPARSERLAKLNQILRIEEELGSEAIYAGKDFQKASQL

[5] = target: T3, His-CaENO1 (recombinant Candida …); experiment: ELISA, serial dilution of CaS1 scFv on coated recombinant CaENO1; concentration at 50% of OD
[6] = target: T3, His-CaENO1 (recombinant Candida …); experiment: competitive ELISA, serial dilution of free CaENO1 mixed with 1 µg/mL CaS1 scFv, then added to coated CaENO1; printed as KD of CaS1 scFv
[7] = target: T3, His-CaENO1 (recombinant Candida …); experiment: competitive ELISA, serial dilution of free His-CaENO1 mixed with 1 µg/mL CaS1, then added to coated His-CaENO1; printed as KD of CaS1 scFv

control scFv (irrelevant scFv)
% FITC fluorescence reaction [1]: 23%

B1: CaS1 scFv (anti-CaENO1 scFv monoclonal antibody) (scFv)
scFv: ALTQPSSVSANLGGTVKITCSGGSGSYGWYQQKSPGSAPVTVIYSNNQRPSNIPSRFSGSPSGSTGTLTITGVQADDEAVYFCGSRDSSYVGVFGAGTTLTVLGQSSRSSTVTLDESGGGLQTPRGALSLVCKASGFTFIDYGMQWVRQAPGKGLEWVAGIGSSGSSTNYGAAVKGRATISRDDGQSTVRLQLNNLRAEDTGTYYCAKSAGGYCVNGAGCNGGSIDAWGHGTEVIVSS
notes: Chicken scFv from a phage library in pComb3X, expressed in E. coli, purified on Ni Sepharose; also called scFv CaS1; His-CaS1 scFv; not shown: His tag (and HA tag) from the pComb3X vector
binding result [2]: binds
binding result [3]: binds
Kd [4]: 0.0188 µM
Kd [5]: 0.498 mg/L
Kd [6]: 4.45 mg/L
Kd [7]: 0.089 µM
